These results are taken from patent US20190367631A1 (Regeneron, published 2019).

Where two headings read alike, the source gives them in different places.

Assay [1] deals with T1, human MSR1 extracellular domain expressed with a N-terminal nonahistidine tag (His9-hMSR1); R&D Systems, Cat … (human, UniProt P21757 77-451).
T1 construct: extracellular domain; Bought reagent; also called His-hMSR1; 9xHis-hMSR1
T1 sequence: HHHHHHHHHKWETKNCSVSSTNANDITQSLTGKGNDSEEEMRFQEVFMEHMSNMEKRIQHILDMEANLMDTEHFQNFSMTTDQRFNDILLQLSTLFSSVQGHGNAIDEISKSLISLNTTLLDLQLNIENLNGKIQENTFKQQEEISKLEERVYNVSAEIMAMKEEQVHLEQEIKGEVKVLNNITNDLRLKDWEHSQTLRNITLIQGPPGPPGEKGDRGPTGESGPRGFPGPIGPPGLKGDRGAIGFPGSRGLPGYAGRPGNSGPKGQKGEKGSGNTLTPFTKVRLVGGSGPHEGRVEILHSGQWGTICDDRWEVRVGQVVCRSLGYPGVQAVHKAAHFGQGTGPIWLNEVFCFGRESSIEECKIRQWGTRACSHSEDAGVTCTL
Briefly: SPR Biacore T200, 25 C, antibody captured by anti-human Fc, His9-hMSR1 injected; no dissociation seen, kd fixed at 1.00E-05. Background: In SPR one partner is held on a chip, and binding of the other changes the refractive index at the surface.
Description: (§1) All binding studies were performed in 10 mM HEPES, 300 mM NaCl, 3 mM EDTA, and 0.05% v/v Surfactant Tween-20, pH 7.4 (HBS-ET) running buffer at 25° C.
(§2) The association rate (kₐ) and dissociation rate (kd) were determined by fitting the real-time binding sensorgrams to a 1:1 binding model with mass transport limitation using Scrubber 2.0c curve-fitting software. Binding dissociation equilibrium constant (KD) and dissociative half-life (t½) were calculated from the kinetic rates as:

Assay [2] concerns the target T1, human MSR1 extracellular domain …. The assay is described as above. The source holds these as a separate data set.
Description: as §1, §2
The target is the same in assay [3]. Briefly: SPR Biacore T200, 25 C, antibody captured by anti-human Fc, His9-hMSR1 injected.
Description: as §1, §2
For assay [4] the target is unchanged. The description is as above. The source holds these as a separate data set.
Description: as §1, §2
In assay [5] the target is T2, full length human MSR1 with a C-terminal Myc tag, on HEK293.Myc.hMSR1 cells (human, UniProt P21757 1-451).
T2 construct: whole, on cells; stably expressed on engineered HEK293 cells; not shown: C-terminal Myc tag
T2 sequence (looked up): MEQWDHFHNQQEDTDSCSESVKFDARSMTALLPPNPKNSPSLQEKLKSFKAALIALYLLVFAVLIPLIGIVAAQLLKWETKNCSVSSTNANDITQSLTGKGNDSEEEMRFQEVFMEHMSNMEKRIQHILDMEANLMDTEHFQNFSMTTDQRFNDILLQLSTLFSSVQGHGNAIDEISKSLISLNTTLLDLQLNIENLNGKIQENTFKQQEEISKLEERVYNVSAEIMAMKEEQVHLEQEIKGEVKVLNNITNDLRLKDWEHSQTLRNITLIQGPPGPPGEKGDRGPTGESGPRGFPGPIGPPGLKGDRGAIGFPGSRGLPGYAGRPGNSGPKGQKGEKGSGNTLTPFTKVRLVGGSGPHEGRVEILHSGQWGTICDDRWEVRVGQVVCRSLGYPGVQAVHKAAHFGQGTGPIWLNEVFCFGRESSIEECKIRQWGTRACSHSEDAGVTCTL
Description: ECL cell binding, HEK293.Myc.hMSR1 cells, 11 nM.

In assay [6] the target is T3, full length monkey MSR1 on HEK293.mfMSR1 cells (Macaca fascicularis, UniProt A0A2K5UWE2 1-451).
T3 construct: whole, on cells
T3 sequence: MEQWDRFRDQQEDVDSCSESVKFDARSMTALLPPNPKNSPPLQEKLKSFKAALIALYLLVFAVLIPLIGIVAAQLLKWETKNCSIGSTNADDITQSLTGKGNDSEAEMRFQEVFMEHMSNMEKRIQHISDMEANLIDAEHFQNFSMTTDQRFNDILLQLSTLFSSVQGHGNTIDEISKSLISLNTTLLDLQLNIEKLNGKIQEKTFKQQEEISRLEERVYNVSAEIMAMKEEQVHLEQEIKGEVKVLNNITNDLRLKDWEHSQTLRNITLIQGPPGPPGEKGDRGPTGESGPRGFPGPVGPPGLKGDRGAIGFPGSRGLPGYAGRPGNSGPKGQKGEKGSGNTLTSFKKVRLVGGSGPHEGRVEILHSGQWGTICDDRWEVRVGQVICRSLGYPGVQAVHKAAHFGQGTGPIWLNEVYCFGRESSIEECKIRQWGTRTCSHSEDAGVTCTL
Briefly: ECL cell binding, HEK293.mfMSR1 cells; section head of Table 10.

The target in assay [7] is T3, full length monkey MSR1 on …. Briefly: ECL cell binding, HEK293.mfMSR1 cells, 11 nM.
Assay [8] deals with T4, human MSR1 extracellular domain expressed with a N-terminal nonahistidine tag (human, UniProt P21757 77-451).
T4 construct: extracellular domain; also called His9-hMSR1; His-hMSR1
T4 sequence: T1 sequence
Description: competition ELISA, plate-coated His9-hMSR1; 500 nM antibody, competitor ligand 5 nM Ox-LDL.
Description: (§3) Buffer alone was also added to wells on each coat. […] This assay was conducted in four different assay runs.
(§4) Data analysis was performed using a sigmoidal dose-response model within Prism™ software (GraphPad).

Assay [9] deals with T4, human MSR1 extracellular domain …. Description: competition ELISA, plate-coated His9-hMSR1; 100 nM antibody, competitor ligand Ac-LDL. (ELISA stands for enzyme-linked immunosorbent assay.)
Description: as §3, §4
Assay [10] shares this target. Briefly: competition ELISA, plate-coated His9-hMSR1; 300 nM antibody, competitor ligand biot-AGE-BSA.
Description: as §3, §4

B1: H1H21234N-N297Q (antibody, human IgG1, V domains shown)
VH: QVQLQESGPGLVKPSETLSLTCTVTGGSISRNYWSWIRQPPGKGLEWIGYIYYSGSIDYNPSLKSRVTISVDTSKNQFSLKLSSMTAADTAVYYCARDRWNWKYGMDVWGQGTTVIVSS
VL: EIVLTQSPGTLSLSPGERATLSCRASQTVRNNYLAWYHQKPGQAPRLLIYGASSRATGIPDRFSGSGSGTDFTLTISRLEPEDFTVYYCHQYGNSPWTFGQGTKMEIKR
notes: human IgG1 Fc with N297Q (EU); also called H1H21234-N297Q
One may read the Kd as the equilibrium constant for the complex coming apart. In general, koff refers to the rate constant with which the complex falls apart. One may read the t½ as how long it takes for the measured level to halve. By kon is commonly meant a measure of how fast the partners come together. B1: in assay [1], the Kd is ≤ 0.0454 nM, the off-rate constant (koff) is ≤ 1e-05 s⁻¹ and the t½ is ≥ 19.3 h. In addition, in assay [2], the Kd was ≤ 0.0333 nM, the koff was ≤ 1e-05 s⁻¹ and the t½ is ≥ 19.3 h. In [3], this molecule yielded a kon of 220000 M⁻¹ s⁻¹. This molecule had a kon in assay [4] of 300000 M⁻¹ s⁻¹.

B2: H1H21234N-N297Q-LP13 (antibody, human IgG1, V domains shown)
VH: B1 VH
VL: B1 VL
modifications: steroid linker-payload LP13 clicked to azido-PEG3-amine on Q295 and Q297 (EU) of the heavy chain constant region
notes: antibody-drug conjugate; human IgG1 Fc with N297Q (EU); also called H1H21234N-LP13
On to B2, for which, in [2], the equilibrium dissociation constant (Kd) was ≤ 0.025 nM, the koff was ≤ 1e-05 s⁻¹ and the t½ is ≥ 19.3 h. This molecule registered a kon in assay [4] of 400000 M⁻¹ s⁻¹.

B3: H1H21234N-N297Q-LP3 (antibody, human IgG1, V domains shown)
VH: B1 VH
VL: B1 VL
modifications: steroid linker-payload LP3 clicked to azido-PEG3-amine on Q295 and Q297 (EU) of the heavy chain constant region
notes: antibody-drug conjugate; human IgG1 Fc with N297Q (EU); also called H1H21234N-LP3
Consider B3, for which, in assay [2], the Kd is ≤ 0.024 nM, the koff is ≤ 1e-05 s⁻¹ and the t½ is ≥ 19.3 h. In assay [4], this molecule displayed a kon of 417000 M⁻¹ s⁻¹.

B4: H1xH29282P2 (antibody, V domains shown)
VH: EVQLVESGGGLVQPGGSLRLSCAASGFTFSTYAMSWVRQAPGKGLEWVSTISGRSDITYFADSVKGRFTVSRDNSKTTLYLQMNSLRAEDTAVYYCATDDDLPLDYWGQGTLVTVSS
VL: not shown
Consider B4, for which the “ratio of binding signal (RLU) to isotype control” value in [5] was found to be 9 fold; in [7] it was 1 fold. Also, in assay [6], the binding result is recorded as “no binding (tested: 11 nM)”.

B5: H2aM21235N (antibody, mouse IgG2a, V domains shown)
VH: EVQLVESGGGLVQPGGSLRLSCAASGFTFSDHYMDWVRQAPGKGLEWVGRTRNKANSYTTEYAASVSGRFTISRDDSKNSLYLQMNSLKTEDTAVYYCTRAGIIGTLFDYWGQGTLVTVSS
VL: DIQMTQSPSSLSASVGDRVTITCRASQIIGRYLNWFQQKPGKVPKLLIYAASSLQRGVPSRFSGSGSGTDFTLTISSLQPEDFATYYCQQSYNTPPITFGQGTRLEIKR
notes: Human variable domains with mouse IgG2a Fc
For B5, the figures for the “% Blocking” value in [8], in assay [9] and in [10] were -4%, 24% and -24%, respectively.
